From US8114968 (DYAX, dated 2012)

Columns and labels:
human MMP-12 [1] = target: T1, human MMP-12 (human, UniProt P39900 106-470, limits assumed); experiment: cell-based or functional assay
human MMP-12 [2] = target: T1, human MMP-12; experiment: Ki from inhibition of MMP-12 enzyme activity
human MMP-12 [3] = target: T1, human MMP-12; experiment: cell-based or functional assay; remark: listed apart in the source
human MMP-12 [4] = target: T1, human MMP-12; experiment: BIACORE, coated Fab
murine MMP-12 [5] = target: T2, murine MMP-12 (mouse, UniProt P34960 110-473, limits assumed); experiment: BIACORE, coated Fab
T2 construct: also called mouse MMP12; mMMP12
T2 sequence (P34960 110-473 limits assumed): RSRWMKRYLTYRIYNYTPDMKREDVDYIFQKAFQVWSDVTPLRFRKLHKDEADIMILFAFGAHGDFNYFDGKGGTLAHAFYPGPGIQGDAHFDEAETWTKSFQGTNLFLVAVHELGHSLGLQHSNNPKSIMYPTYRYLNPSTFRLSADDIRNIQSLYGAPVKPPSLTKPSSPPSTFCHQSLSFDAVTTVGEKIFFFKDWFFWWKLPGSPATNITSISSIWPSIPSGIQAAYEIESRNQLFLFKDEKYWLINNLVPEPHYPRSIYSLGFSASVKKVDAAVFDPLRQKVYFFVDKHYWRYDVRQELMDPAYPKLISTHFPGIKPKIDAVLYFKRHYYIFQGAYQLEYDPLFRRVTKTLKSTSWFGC

human MMP-12 [6] = target: T1, human MMP-12; experiment: cell-based or functional assay; remark: listed apart in the source
murine MMP-12 [7] = target: T2, murine MMP-12; experiment: cell-based or functional assay
human MMP-12 [8] = target: T1, human MMP-12; experiment: IC50 against substrate concentration, enzyme inhibition, FIG. 3
murine MMP-12 [9] = target: T2, murine MMP-12; experiment: as above
human MMP-12 [10] = target: T1, human MMP-12; experiment: inhibition assay of MMP-12 activity ('IC50 or Ki')

T1 sequence (P39900 106-470 limits assumed): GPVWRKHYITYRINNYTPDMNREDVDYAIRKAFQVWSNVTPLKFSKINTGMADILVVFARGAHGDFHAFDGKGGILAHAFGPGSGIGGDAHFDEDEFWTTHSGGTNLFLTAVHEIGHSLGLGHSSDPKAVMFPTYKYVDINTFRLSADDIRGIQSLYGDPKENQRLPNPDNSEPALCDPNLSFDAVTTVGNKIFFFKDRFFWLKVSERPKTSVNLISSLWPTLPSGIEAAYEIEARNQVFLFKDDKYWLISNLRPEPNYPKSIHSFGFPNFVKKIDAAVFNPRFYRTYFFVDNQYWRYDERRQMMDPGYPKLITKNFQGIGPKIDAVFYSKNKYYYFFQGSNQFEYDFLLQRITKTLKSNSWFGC

B1: 539A-M0016-A11 IgG (antibody, V domains shown)
VH: EVQLLESGGGLVQPGGSLRLSCAASGFTFSEYQMAWVRQAPGKGLEWVSSIYPSGGHTHYADSVKGRFTISRDNSKNTLYLQMNSLRAEDTAVYYCAKESYYDFWSGYYFDYWGQGTLVTVSS
VL: DIQMTQSPSSLSASVRDRVTITCRTSQNINTYLNWYYQAPGRAPKLLIFGVSSLHRGVSSRFSGSGDGTEFTLTISSLQPEDIGTYFCQQSYSSPWTFGQGTKVEIK
notes: also called M0016-A11 IgG a-huMMP12
IC50 (nM), IgGs (human MMP-12 [1]): 2.1 nM
Ki (human MMP-12 [2]): 0.7 nM

B2: 539A-M0013-D11 IgG (antibody, V domains shown)
VH: EVQLLESGGGLVQPGGSLRLSCAASGFTFSSYPMWWVRQAPGKGLEWVSGIVPSGGVTIYADSVKGRFTISRDNSKNTLYLQMNSLRAEDTAVYYCARVGWLASSDYYYYMDVWGKGTTVTVSS
VL: DIQMTQSPSSLSASVGDRITISCQASQDIDNYLNWYQQRSGKAPKLLIYDAYNLKAGVPSRFRGSRSGTDFFLTISSLQPEDFATYYCQQSYRAPLTFGGGTKVEIK
IC50 (nM), IgGs (human MMP-12 [1]): 13.3 nM
Ki (human MMP-12 [2]): 4.97 nM

B3: 539B-M0015-F02 (Fab, V domains shown)
VH: EVQLLESGGGLVQPGGSLRLSCAASGFTFSRYGMTWVRQAPGKGLEWVSGISPSGGNTWYADSVKGRFTISRDNSKNTLYLQMNSLRAEDTAVYYCTSHDYGDHYGMDVWGQGTLVTVSS
VL: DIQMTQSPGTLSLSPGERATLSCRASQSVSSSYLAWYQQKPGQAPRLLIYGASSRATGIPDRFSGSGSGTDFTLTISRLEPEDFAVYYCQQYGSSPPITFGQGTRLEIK
% of activity left with 100 nM in assay 04 Oct. 2006 (human MMP-12 [3]): 84.1%

B4: 539A-M0013-H06 IgG (antibody, V domains shown)
VH: EVQLLESGGGLVQPGGSLRLSCAASGFTFSAYEMDWVRQAPGKGLEWVSGISSSGGPTYYADSVKGRFTISRDNSKNTLYLQMNSLRAEDTAVYYCARVGGWELLQDYYYYMDVWGKGTTVTVSS
VL: DIQMTQSPATLSLSPGERATLSCRASHSVDNLAWYQQQPGQAPRLLIYDVSYRATGIPARFSGSGSGTDFTLTISSLEPEDFAVYYCQQRNNWPLSLTFGGGTKVEIK
IC50 (nM), IgGs (human MMP-12 [1]): 5.3 nM
Ki (human MMP-12 [2]): 2.7 nM

B5: 539B-M0008-H09 Fab (Fab, V domains shown)
VH: EVQLLESGGGLVQPGGSLRLSCAASGFTFSDYNMHWVRQAPGKGLEWVSYIGPSGGYTHYADSVKGRFTISRDNSKNTLYLQMNSLRAEDTAVYYCAKDIRGAYSSGLFDYWGRGTLVTVSS
VL: DIQMTQSPSSLSASVGDRVTITCRANQSIYTYLNWYQQKPGKAPELLIYAASSLQSGVPSRFSGSGSGTDFTLTISSLQPEDFATYYCQQAGIFGQGTKLEIK
notes: N-glycosylation site in LC CDR1; also called M08H09
Kd (human MMP-12 [4]): 17.7 nM
koff (murine MMP-12 [5]): 0.004 s⁻¹
IC50hu (human MMP-12 [6]): 12.1 nM
IC50 m (murine MMP-12 [7]): < 10 nM (not printed; inferred)
% of activity left with 100 nM in assay 04 Oct. 2006 (human MMP-12 [3]): 4.6%

B6: 539B-M0008-H09 (format not stated) (antibody, V domains shown)
VH: EVQLLESGGGLVQPGGSLRLSCAASGFTFSDYNMHWVRQAPGKGLEWVSYIGPSGGYTHYADSVKGRFTISRDNSKNTLYLQMNSLRAEDTAVYYCAKDIRGAYSSGLFDYWGRGTLVTVSS
VL: DIQMTQSPSSLSASVGDRVTITCRANQSIYTYLNWYQQKPGKAPELLIYAASSLQSGVPSRFSGSGSGTDFTLTISSLQPEDFATYYCQQAGIFGQGTKLEIK
notes: Same clone as m49 and m54; also called M08H09
Ki (human MMP-12 [8]): 2.8 nM
Ki (murine MMP-12 [9]): 2.2 nM

B7: 539B-M131A06 (antibody, V domains shown)
VH: EVQLLESGGGLVQPGGSLRLSCAASGFTFSWYWMHWVRQAPGKGLEWVSGISPSGGMTMYADSVKGRFTISRDNSKNTLYLQMNSLRAEDTAVYYCARDIVGPYSAGLFDYWGRGTLVTVSS
VL: DIQMTQSPSSLSASVGDRVTITCRANQSIYTYLNWYQQKPGKAPELLIYAASSLQSGVPSRFSGSGSGTDFTLTISSLQPEDFATYYCQQAGIFGQGTKLEIK
notes: N-glycosylation site in LC CDR1; also called M0131-A06
Ki (human MMP-12 [10]): < 0.3 nM

B8: 539A-M0013-G12 IgG (antibody, V domains shown)
VH: EVQLLESGGGLVQPGGSLRLSCAASGFTFSWYHMFWVRQAPGKGLEWVSGISSSGGYTHYADSVKGRFTISRDNSKNTLYLQMNSLRAEDTAVYYCATREGMLYDYVWGENYMDVWGKGTTVTVSS
VL: DIQMTQSPSSLSASVGDRVTITCQASQDTYNRLHWYQQKPGKAPKLLIYDAVNLNRGVPSRFRGSGSGTNYILIITNLQPEDTATYYCQHSDDLSLAFGGGTKVEIK
notes: also called M0013-G12 IgG a-huMMP12
IC50 (nM), IgGs (human MMP-12 [1]): 4.1 nM
Ki (human MMP-12 [2]): 2.05 nM
